Earlier results as cited in US20240082365A1, “MULTIDISCIPLINARY TREATMENT OF CHRONIC DISEASE USING REGENERATIVE CELLS AND TECHNOLOGIES” (priority 2022, published 2024).

Assays:
[1] = test system: metastatic renal cell carcinoma (RCC) and metastatic melanoma; settings: high-dose, e.g. IV bolus 600,000 IU/kg every 8 hours for up to 14 doses
[2] = subcutaneous, one-compartment model

In the case of aldesleukin, the “time at which peak plasma levels are reached” value (after SC administration) is listed as 2 to 6 h, the absorption half-life [2] is listed as 0.75 h and the elimination half-life [2] is listed as 3 to 5 h. The antitumor activity [1] was “demonstrated antitumor activity”.
